We go through 2 molecules from patent publication US20240207432A1 (BIOSION, published 2024).

Where two headings read alike, the source gives them in different places.

Test [1] deals with T1, human TROP2-his protein (human, UniProt P09758 27-274).
T1 construct: Biotin-labelled in the ELISAs, unlabelled analyte in Biacore; also called biotin-labeled human TROP2-his protein; biotin human Trop2-his
T1 sequence: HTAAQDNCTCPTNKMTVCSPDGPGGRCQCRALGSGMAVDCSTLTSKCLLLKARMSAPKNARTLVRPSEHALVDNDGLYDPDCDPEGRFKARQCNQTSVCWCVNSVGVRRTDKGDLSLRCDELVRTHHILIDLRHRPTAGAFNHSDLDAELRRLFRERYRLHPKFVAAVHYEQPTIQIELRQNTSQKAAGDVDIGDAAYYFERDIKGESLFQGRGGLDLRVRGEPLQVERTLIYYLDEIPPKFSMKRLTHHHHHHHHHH
The experiment in a line: competitive ELISA: BM1 coated, antibody premixed with biotin human TROP2-his; blocked: binding of TROP2-his to coated BM1; partial only: OD falls from about 1.9 to a plateau of about 1.3. In general terms: In an ELISA, binding on a coated surface is turned into a signal by an enzyme label.

For test [2], the target named is T2, cynomolgus TROP2-his protein (cynomolgus monkey, UniProt P09758 27-272 (human entry), limits assumed).
T2 construct: no cleavage site is stated; also called Cynomolgus monkey TROP2-his protein; monkey TROP2
T2 chain: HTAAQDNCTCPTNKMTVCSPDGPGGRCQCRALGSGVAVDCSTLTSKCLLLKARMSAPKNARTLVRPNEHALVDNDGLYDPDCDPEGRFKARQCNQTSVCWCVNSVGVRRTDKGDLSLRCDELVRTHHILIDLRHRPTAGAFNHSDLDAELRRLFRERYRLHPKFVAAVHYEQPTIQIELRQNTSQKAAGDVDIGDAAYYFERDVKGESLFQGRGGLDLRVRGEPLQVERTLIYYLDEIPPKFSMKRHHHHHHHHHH
The experiment in a line: indirect ELISA, cynomolgus TROP2-his coated, OD(450-630).

For test [3], the target named is T2, cynomolgus TROP2-his protein. The description is as above.
The target in test [4] is T1, human TROP2-his protein. Nature of the test: capture ELISA, antibody captured on anti-human IgG Fc coat, biotin human TROP2-his in solution, OD(450-630). The protocol: (§1) Plates were washed once with wash buffer (PBS+0.05% v/v Tween-20, PBST) and then blocked with 200 μl/well blocking buffer (5% w/v non-fatty milk in PBST) for 2 hours at 37° C. […] Plates containing captured anti-TROP2 antibodies were incubated with biotin-labeled human TROP2-his protein (prepared in house, SEQ ID NO: 67, 56.7 ng/mL in 2.5% w/v non-fatty milk in PBST, 100 μl/well) for 40 minutes at 37° C., washed 4 times, and incubated with streptavidin conjugated HRP (1:10000 dilution in PBST, Jackson Immuno Research, Cat #016-030-084, 100 μl/well) for 40 minutes at 37° C. After a final wash, plates were incubated with 100 μl/well ELISA substrate TMB (Innoreagents, Cat #TMB-S-002) at room temperature. The reaction was stopped in 3-10 minutes at room temperature with 50 μl/well 1M H₂SO₄, and the absorbance of each well was read on a microplate reader using dual wavelength mode with 450 nm for TMB and 630 nm as the reference wavelength. The OD (450-630) values were plotted against antibody concentration. Data was analyzed using Graphpad Prism software and EC₅₀ values were reported.
For the Capture ELISA, AffiniPure F(ab′)₂ Fragment Goat Anti-Human IgG, Fcγ fragment specific (Jackson Immunoresearch, Cat #109-006-008) was used instead of AffiniPure Goat Anti-Mouse IgG, Fcγ fragment specific, 100 μl/well.

The target of test [5] is T1, human TROP2-his protein. The description is as above. The protocol: as §1
For the capture ELISA, AffiniPure Goat Anti-Human IgG, Fcγ fragment specific (Jackson Immuno Research, Cat #109-005-098) was used instead of AffiniPure Goat Anti-Mouse IgG, Fcγ fragment specific, 100 μl/well.
The source holds these as a separate data set.

In test [6] the target is T2, cynomolgus TROP2-his protein. The experiment in a line: SPR Biacore, antibody captured on anti-human IgG CM5 chip, TROP2-his analyte. On the procedure:
(§2) Un-reacted moieties on the chip (biosensor) surface were blocked with ethanolamine. […] The antigen-antibody association kinetics was followed for 2 minutes and the dissociation kinetics was followed for 10 minutes. The association and dissociation curves were fit to a 1:1 Langmuir binding model using BIAcore evaluation software.
For orientation: Surface plasmon resonance follows binding to a sensor surface in real time, without labels.

Test [7] addresses T1, human TROP2-his protein. Described as above. On the procedure:
as §2

Test [8] deals with T3, full length human TROP2 on 293F-TROP2 cells (human, UniProt P09758 27-323).
T3 construct: also called 293F-TROP2 cells (clone ID #3A8); cell surface TROP2
T3 sequence: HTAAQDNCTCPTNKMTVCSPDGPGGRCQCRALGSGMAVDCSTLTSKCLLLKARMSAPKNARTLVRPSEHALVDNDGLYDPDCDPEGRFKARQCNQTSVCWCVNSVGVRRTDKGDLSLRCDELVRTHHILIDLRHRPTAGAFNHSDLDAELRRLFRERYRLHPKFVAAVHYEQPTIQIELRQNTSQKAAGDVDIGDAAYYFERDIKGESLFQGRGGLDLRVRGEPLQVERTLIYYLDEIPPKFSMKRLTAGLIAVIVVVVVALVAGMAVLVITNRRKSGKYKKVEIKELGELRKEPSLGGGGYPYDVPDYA
The experiment in a line: FACS on 293F-TROP2 cells, MFI. On the procedure: (§3) The 293F-TROP2 cells were harvested from cell culture flasks, washed twice and re-suspended in phosphate buffered saline (PBS) containing 2% v/v Fetal Bovine Serum (FACS buffer). […] Following an incubation of 40 minutes at 4° C. in dark, cells were washed twice and re-suspended in FACS buffer. Fluorescence was measured using a Becton Dickinson FACS Canto II-HTS equipment, and the MFI (mean fluorescence intensity) was plotted against antibody concentration. Data was analyzed using Graphpad Prism software and EC₅₀ values were reported.

Test [9] has as its target T3, full length human TROP2 on 293F-TROP2 …. Nature of the test: FACS on 293F-TROP2 cells, MFI. This is another data set of the same source.
Test [10] has as its target T2, cynomolgus TROP2-his protein. The experiment in a line: SPR Biacore, antibody captured on anti-human IgG CM5 chip, TROP2-his analyte. On the procedure: as §2
For test [11], the target named is T1, human TROP2-his protein. The description is as above. The protocol: as §2
This is another data set of the same source.

Test [12] concerns the target T3, full length human TROP2 on 293F-TROP2 …. The experiment in a line: FACS on 293F-TROP2 cells, MFI. The protocol: The binding activity of the mouse anti-TROP2 antibodies to cell surface TROP2 proteins was tested by flow cytometry (FACS), using Biosion in-house prepared 293F-TROP2 cells (clone ID #3A8) stably expressing full length human TROP2s (uniprot #P09758, SEQ ID NO.: 71) on cell membrane. The 293F-TROP2 cells were prepared by transfecting 293F cells (Thermofisher Inc., Cat #11625019) with a pCMV-T-P plasmid inserted with human TROP2 coding sequence between EcoRI and XbaI sites, following the instruction of lipofectamine 3000 transfection reagent (Thermo Fisher).
as §3
This is another data set of the same source.

Test [13] concerns the target T1, human TROP2-his protein. The experiment in a line: capture ELISA, antibody captured on anti-mouse IgG Fc coat, biotin human TROP2-his in solution, OD(450-630). The protocol: as §1
In test [14] the target is T2, cynomolgus TROP2-his protein. Nature of the test: indirect ELISA, cynomolgus TROP2-his coated at 2 ug/mL, OD(450-630). The protocol:
The anti-TROP2 antibodies of the disclosure were tested for their cross-reaction with cynomolgus TROP2 proteins. Briefly, 96-well micro plates were coated with 100 μl 2 μg/ml cynomolgus TROP2-his proteins (prepared in-house with SEQ ID NO: 70) in carbonate/bicarbonate buffer (pH 9.6) overnight at 4° C. ELISA plates were washed once with wash buffer (PBS+0.05% v/v Tween-20, PBST) and then blocked with 200 μl/well blocking buffer (5% w/v non-fatty milk in PBST) for 2 hours at 37° C. […] After a final wash, plates were incubated with 100 μl/well TMB (Innoreagents) at room temperature. The reaction was stopped 3-10 minutes later at room temperature with 50 μl/well 1M H₂SO₄, and the absorbance of each well was read on a microplate reader using dual wavelength mode with 450 nm for TMB and 630 nm as the reference wavelength. The OD (450-630) values were plotted against antibody concentration. Data was analyzed using Graphpad Prism software and EC₅₀ values were reported.

Test [15] has the same target. The experiment in a line: SPR Biacore T200, mAb captured on anti-mouse IgG CM5 chip, TROP2-his analyte. On the procedure: as §2
Test [16] addresses T1, human TROP2-his protein. The description is as above. On the procedure:
as §2

Test [17] addresses T1, human TROP2-his protein. The experiment in a line: competitive ELISA: BM1 coated at 1 ug/mL, antibody premixed with biotin human TROP2-his; blocked: binding of TROP2-his to coated BM1. The protocol: The mouse anti-TROP2 antibodies were tested for epitope binding in a competitive ELISA assay. […] ELISA plates were washed once with wash buffer (PBS+0.05% v/v Tween-20, PBST) and then blocked with 200 μl blocking buffer (5% w/v non-fatty milk in PBST) for 2 hours at 37° C. While blocking, the anti-TROP2 antibodies or controls were diluted with biotin labeled human TROP2-his protein (SEQ ID NO: 67, 34 ng/mL in 2.5% wA non-fatty milk in PBST), starting at 80 nM with a 5-fold serial dilution, and incubated at room temperature for 40 minutes. After plate washing for 4 times, the antibody/TROP2-his protein mixtures were added to the antibody coated plates, 100 μl per well. After incubation at 37° C. for 40 minutes, plates were washed 4 times again using wash buffer. Then the plates were added and incubated with 100 μl Peroxidase Streptavidin (1:10000 dilution in PBST buffer. Jackson Immunoresearch, Cat #016-030-084) for 40 minutes at 37° C. Plates were washed again using wash buffer. Finally, TMB was added and the reaction was stopped using 1M H₂SO₄. The absorbance of each well was read on a microplate reader using dual wavelength mode with 450 nm for TMB and 630 nm as the reference wavelength, and the OD (450-630) values were plotted against antibody concentration. Data was analyzed using Graphpad Prism software and IC₅₀ values were reported.

B1: chimeric A1E4F7D4 (antibody, human IgG1, kappa, V domains shown)
VH: QVQLQQSGAELAKPGTSVKMSCEASGYSFTTHWIHWMKQRPGQGLEWIGTIFPSNAYAVYNQKFRDRAIMTADRSSTTAYIQLTGLTSEDSAVYYCARASYFDYWGQGTTLTVSS
VL: DILLTQSPATLSVSPGERVTFSCRASQNIGTSIHWFQQRTTGSPRLLIKYASESISGIPSRFSGSGSGTDFTLHINSVESEDIAHYYCQHSHSWPFTFGSGTKLEIQR
notes: also called chimeric antibody A1E4F7D4
B1: the half-inhibitory concentration (IC50) – broadly, the midpoint of a concentration-inhibition curve – with human TROP2-his protein [1] was 447 pM. The 50% effective concentration (EC50) (usually the concentration giving half of the maximal effect) in test [2] worked out at 967 pM; in test [3] it was 237 pM; with human TROP2-his protein [4], 73.2 pM; with human TROP2-his protein [5] it was 97.9 pM; in [8], 575 pM; in test [9], 360 pM. The Kd (as a rule, the constant that tells how readily two partners part at equilibrium) in test [6] was 134 pM; with human TROP2-his protein [7] it was 185 pM; in test [10], 247 pM; in the test with human TROP2-his protein [11] it was 32.6 pM. In addition, the koff (in general, the rate constant with which the complex falls apart) was 0.000163 s⁻¹ in test [6], 0.000194 s⁻¹ with human TROP2-his protein [7], 0.000171 s⁻¹ in [10] and 3.13e-05 s⁻¹ with human TROP2-his protein [11]. The kon (commonly a measure of how fast the partners come together) turned out to be 1.22e+06 M⁻¹ s⁻¹ in test [6], 1.05e+06 M⁻¹ s⁻¹ with human TROP2-his protein [7], 692000 M⁻¹ s⁻¹ in [10] and 961000 M⁻¹ s⁻¹ with human TROP2-his protein [11].

B2: mouse antibody A1B12D2B4E7B3 (antibody, V domains shown)
VH: EVQLQQSGPELVKPGASVKMSCKASGFTFTDYYMNWVKQSHGKSLEWIGYIYPNHGGTGYNQKFKDKATLTVDKSSSTAYMELRSLTSDDSAVYYCARENYGYAMDYWGQGTSVTVSS
VL: DVVMTQTPLSLPVSLGDQASISCRSSQSLVHGDGNTYLHWFLQKPGQSPKLLIYTVSNRFSGVPDRFSGSGSGTDFTLKINRVEAEDLGIYFCSQTTHVPTFGGGTKLEIK
notes: Mouse monoclonal IgG purified from hybridoma supernatant
For the molecule B2, the concentration for a half-maximal effect (EC50) in [12] worked out at 896 pM; in the test with human TROP2-his protein [13] it was 248 pM; in test [14] it was 578 pM. In addition, the values for the dissociation constant Kd (in [15]; in the test with human TROP2-his protein [16]) were 1120 pM and 1060 pM, respectively. The koff in test [15] is 0.000124 s⁻¹; in the test with human TROP2-his protein [16], 8.92e-05 s⁻¹. Also, the association rate constant (kon) in test [15] was determined as 111000 M⁻¹ s⁻¹; with human TROP2-his protein [16], 84000 M⁻¹ s⁻¹. This molecule came in with an IC50 in the test with human TROP2-his protein [17] of 1550 pM.
